Test results from patent publication US9987241B2, “Enzyme conjugate and prodrug cancer therapy” (The Board of Regents of the University of Oklahoma, priority 2014, dated 2018).

Assays:
4T1 lung metastasis = test: Lung metastasis nodules in 4T1-TdTomato model; format: in vivo, BALB/c mouse; details: after 3 weeks of treatment
Source text: A Leica stereomicroscope with an automated ImageJ macro was used to quantify fluorescent nodules in the lung. […] Median nodule size on the log scale is marked. Total nodules per group (n=3 mice) is summed and shown.

[1] = system: CD4+ CD25+ FoxP3+ regulatory T cell; details: comparing mCGL-AV & Sel groups with and without Cyc, after 3 weeks of treatment
Source text: CD4+ CD25+ FoxP3+ regulatory T cell levels were quantified with flow cytometry and are presented as a percentage of spleen lymphocytes in BALB/c mice with 4T1 grafts after 3 weeks of treatment or healthy BALB/c mice with no tumor. Data is mean±SE (n=3 mice).

[2] = system: hypoxia-inducible factor-1 alpha (HIF-1-α); test: Immunohistochemistry staining of HIF-1-α in tumor sections; format: in vivo, BALB/c mice; details: after 3 weeks of treatment
Source text: Immunohistochemistry staining of HIF-1-α with DAB development was quantified from whole section images of mice sacrificed after 3 weeks of treatment. Data is presented as mean±SE (n=3 mice). Statistical significance between groups is indicated by +(p<0.01) or * (p<0.001).

4T1 tumors = test: Combination therapy on 4T1 tumors implanted orthotopically: tumor volume and survival; format: in vivo; details: BALB/cJ mice with orthotopic 4T1 tumors; protocols of FIGS. 8 and 9; treatment day 10 to 30
Experimental: Selenomethionine (5 mg/kg IP) was administered 10 h post fusion protein administration. Rapamycin (5 mg/kg IP) and cyclophosphamide (10 mg/kg IP) were administered daily. Treatment began on day 10 and continued until day 30 as indicated by the arrow. Statistical significance vs. untreated is indicated by * (p<0.001).

[3] = In vivo mCGL-AV plasma clearance (ELISA on serum); design: species or system mice; details: 10 mg/kg intraperitoneal
Experimental: An ELISA assay for mCGL-AV was performed on serum samples at intervals following intraperitoneal administration of mCGL-AV at 10 mg/kg. Data is presented as mean±SE (n=3).
Clearance of the mCGL-AV protein from the circulation of BALB/cJ mice occurred with pharmacokinetics similar to the other enzyme prodrug systems in SCID mice.

[4] = system: human HAAE-1 endothelial cells; test: Dissociation constants of fusion proteins on HAAE-1 cells grown in vitro; format: binding; details: for Kd: HAAE-1 cells in vitro, ± SE (n = 3), read-out: Dissociation Constant (Kd) HAAE-1
mouse 4T1 breast tumors = test: AV- and AI-targeted mCGL enzyme prodrug therapy on orthotopic 4T1 tumors; format: in vivo; details: BALB/c mice; fusion protein 10 mg/kg IP daily with selenomethionine 5 mg/kg IP
Experimental: FIG. 6 is a comparison of efficacy of AV- and AI-targeted mCGL enzyme prodrug therapy with selenomethionine on 4T1 tumors implanted orthotopically in BALB/c mice. mCGL-AV and mCGL-AI were administered daily (10 mg/kg IP). Selenomethionine (5 mg/kg IP) was administered 10 h post fusion protein administration. Treatment began on day 11 and continued until day 18 as indicated by the arrow. Statistical significance vs. untreated is indicated by * (p<0.001). No significant difference was observed between treatment groups. […] Data is presented as mean volume±SE (n=6).

[5] = system: human MDA-MB-231 breast tumors; test: Dissociation constants of fusion proteins on MDA-MB-231 cells grown in vitro; format: binding; details: for Kd: MDA-MB-231 cells in vitro, ± SE (n = 3), read-out: Dissociation Constant (Kd) MDA-MB-231
[6] = L-methioninase enzyme activity of fusion proteins; format: biochemical; details: for L-methioninase enzyme activity compared with Met-AV: versus Met-AV fusion protein
[7] = Fusion protein specific IgG + IgM titers after daily IP administration; format: in vivo; details: BALB/c mice

## O=P1(N(CCCl)CCCl)NCCCO1 (stereo not shown) [Cyc, cyclophosphamide]
4T1 lung metastasis
  Lung metastatic nodules, number and size: reduced numbers of metastases
[1]
  Regulatory T cell levels in spleen: mild reduction in regulatory T cell levels
[2]
  HIF-1-α expression in tumor sections: drastic reduction of HIF-1-α expression
4T1 tumors
  Median Survival: 23 days

## C[Se]CC[C@H](N)C(=O)O [Sel, selenomethionine]
4T1 tumors
  Median Survival: 18 days

## CO[C@H]1C[C@@H]2CC[C@@H](C)[C@@](O)(O2)C(=O)C(=O)N2CCCC[C@H]2C(=O)O[C@H]([C@H](C)C[C@@H]2CC[C@@H](O)[C@H](OC)C2)CC(=O)[C@H](C)/C=C(\C)[C@@H](O)[C@@H](OC)C(=O)[C@H](C)C[C@H](C)/C=C/C=C/C=C/1C [Rap, rapamycin]
4T1 tumors
  Median Survival: 14 days

B1: mCGL-AV: fusion protein of mouse cystathione-γ-lyase mutant with three mutations (SEQ ID NO:3) and annexin V; post-cleavage SEQ ID NO:10 (protein)
chain: MHHHHHHSSGLVPRGSGMKETAAAKFERQHMDSPDLGTDDDDKMLEVLFQGPMQKDASLSGFLPSFQHFATQAIHVGQEPEQWNSRAVVLPISLATTFKQDFPGQSSGFNYSRSGNPTRNCLEKAVAALDGAKHSLAFASGLAATITITHLLKAGDEIICMDEVYGGTNLYFRRVASEFGLKISFVDCSKTKLLEAAITPQTKLVWIETPTNPTLKLADIGACAQIVHKRGDIILVVDNTFMSAYFQRPLALGADICMCSATKYMNGHSDVVMGLVSVNSDDLNSRLRFLQNSLGAVPSPFDCYLCCRGLKTLQVRMEKHFKNGMAVARFLETNPRVEKVVYPGLPSHPQHELAKRQCSGCPGMVSFYIKGALQHAKAFLKNLKLFTLAVSLGGYESLAELPAIMTHASVPEKDRATLGINDTLIRLSVGLEDEQDLLEDLDRALKAAHPSGGGGSGGGGMATRGTVTDFPGFDGRADAEVLRKAMKGLGTDEDSILNLLTSRSNAQRQEIAQEFKTLFGRDLVDDLKSELTGKFEKLIVAMMKPSRLYDAYELKHALKGAGTDEKVLTEIIASRTPEELSAIKQVYEEEYGSNLEDDVVGDTSGYYQRMLVVLLQANRDPDTAIDDAQVELDAQALFQAGELKWGTDEEKFITIFGTRSVSHLRRVFDKYMTISGFQIEETIDRETSGNLEQLLLAVVKSIRSIPAYLAETLYYAMKGAGTDDHTLIRVVVSRSEIDLFNIRKEFRKNFATSLYSMIKGDTSGDYKKALLLLCGGEDD
modifications: pre-cleavage amino acid sequence of the mCGL-AV fusion protein
[3]; BALB/cJ mice
  Time to complete clearance from the circulation: ≤ 10 h
[3]; SCID mice, ELISA on serum
  Clearance from the circulation (time): < 10 h
[4]
  Kd: 0.11 nM
  Binding to HAAE-1 human endothelial cells in vitro: bound strongly
Mouse 4T1 breast tumors
  Negative effects of treatment: No negative effects were observed
[5]
  Kd: 2.5 nM
  Binding to MDA-MB-231 tumor cells in vitro: bound strongly
[6]
  L-methioninase enzyme activity: 1.3 U/mg
  L-methioninase enzyme activity compared with Met-AV: substantially equivalent
4T1 tumors
  Median Survival: 18 days
[7]; daily 10 mg/kg IP, Day 0
  Fusion protein specific IgG + IgM titer, Day 0: Not detected
[7]; daily 10 mg/kg IP, Day 7
  Fusion protein specific IgG + IgM titer, Day 7: Not Detected
[7]; daily 10 mg/kg IP, Day 14
  Fusion protein specific IgG + IgM titer, Day 14: Not Detected
[7]; daily 10 mg/kg IP, Day 21
  Fusion protein specific IgG + IgM titer, Day 21: Not Detected
[7]; daily intraperitoneal administration, 21 day period
  Immunogenicity: IgG+IgM antibody titers in the bloodstream: did not produce detectable IgG+IgM antibody titers

B2: mCGL-AI: fusion protein of mouse cystathione-γ-lyase mutant with three mutations (SEQ ID NO:3) and annexin I; post-cleavage SEQ ID NO:11 (protein)
chain: MHHHHHHSSGLVPRGSGMKETAAAKFERQHMDSPDLGTDDDDKMLEVLFQGPMQKDASLSGFLPSFQHFATQAIHVGQEPEQWNSRAVVLPISLATTFKQDFPGQSSGFNYSRSGNPTRNCLEKAVAALDGAKHSLAFASGLAATITITHLLKAGDEIICMDEVYGGTNLYFRRVASEFGLKISFVDCSKTKLLEAAITPQTKLVWIETPTNPTLKLADIGACAQIVHKRGDIILVVDNTFMSAYFQRPLALGADICMCSATKYMNGHSDVVMGLVSVNSDDLNSRLRFLQNSLGAVPSPFDCYLCCRGLKTLQVRMEKHFKNGMAVARFLETNPRVEKVVYPGLPSHPQHELAKRQCSGCPGMVSFYIKGALQHAKAFLKNLKLFTLAVSLGGYESLAELPAIMTHASVPEKDRATLGINDTLIRLSVGLEDEQDLLEDLDRALKAAHPSGGGGSGGGGMAMVSEFLKQARFLENQEQEYVQAVKSYKGGPGSAVSPYPSFNVSSDVAALHKAIMVKGVDEATIIDILTKRTNAQRQQIKAAYLQENGKPLDEVLRKALTGHLEEVVLAMLKTPAQFDADELRGAMKGLGTDEDTLIEILTTRSNEQIREINRVYREELKRDLAKDITSDTSGDFRKALLALAKGDRCQDLSVNQDLADTDARALYEAGERRKGTDVNVFTTILTSRSFPHLRRVFQNYGKYSQHDMNKALDLELKGDIEKCLTTIVKCATSTPAFFAEKLYEAMKGAGTRHKALIRIMVSRSEIDMNEIKVFYQKKYGISLCQAILDETKGDYEKILVALCGGN
modifications: pre-cleavage amino acid sequence of the mCGL-AI fusion protein
[4]
  Kd: 2.3 nM
  Binding to HAAE-1 human endothelial cells in vitro: bound strongly
Mouse 4T1 breast tumors
  Negative effects of treatment: No negative effects were observed
[5]
  Kd: 0.68 nM
  Binding to MDA-MB-231 tumor cells in vitro: bound strongly
[6]
  L-methioninase enzyme activity: 1.0 U/mg
  L-methioninase enzyme activity compared with Met-AV: substantially equivalent
